This note sets out measurements from the supplement of paper PMC10567573.

First the molecules themselves.
B1: RAB40A (parent)
chain: NWLGRPSKVLSLQDLCCRTIVSCT
B2: CLPTM1 (parent)
chain: LGCYAVYSLLYLEHKGWYSWVLSM
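Further: lentivirally expressed fusions sorted by FACS into six bins by GFP to DsRed ratio, PSI derived from sequencing read proportions per bin multiplied by bin number.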

One data set covers variants of B1. The data set is described as follows: protein stability index of a GFP-peptide fusion (GPS, HEK-293T) (PSI 1-6); higher = more stable. The note with it: c terminus: a fixed tail appended.
In the case of NWLGRPSKVLSLQDLCCRTIVSWT [C23W], the protein stability index amounted to 2.67.

Consider NWLGRPSKVLSLQDLCRRTIVSCT [C17R], for which the protein stability index stood at 3.23. Same read-out and setting: then NWLGRPSKVLSLQDLCSRTIVSCT [C17S], with 2.75; and NWLGRPSKVLSLQDLCWRTIVSCT [C17W], with 2.03; and NWLGRPSKVLSLQDLCVRTIVSCT [C17V], with 2.6.

As to NWLGRPSKVLSLQDLCYRTIVSCT [C17Y], the protein stability index is 2.22. The same measure, in the same setting: then NWLGRPSKVLSLQDLCTRTIVSCT [C17T], with 3.23; and NWLGRPSKVLSLQDLCCRTNVSCT [I20N], with 1.91.

As for NWLGRPSKVLSLQDLCCRTFVSCT [I20F], the protein stability index worked out at 1.89. Regarding NWLGRPSKVLSLQDLCCRTHVSCT [I20H], the protein stability index was 2.48. The same measure, in the same setting: then NWLGRPSKVLSLQDLCCRTKVSCT [I20K], with 2.62; and NWLGRPSKVLSLQDLCCRTTVSCT [I20T], with 1.73.

NWLGRPSKVLSLQDLCCRTCVSCT [I20C]: the protein stability index was determined as 2.32. Still for that read-out and setting: then NWLGRPSKVLSLQDLCCRTWVSCT [I20W], with 2.18. On to NWLGRPSKVLSLQDLCCRTDVSCT [I20D], for which the protein stability index turned out to be 2.4. The same measure, in the same setting: for NWLGRPSKVLSLQDLCCRTRVSCT [I20R] the value was 2.54; for NWLGRPSKVLSLQDLCCRTLVSCT [I20L], 2.74; for NWLGRPSKVLSLQDLCCRTQVSCT [I20Q], 2.26. On the same count and under the same terms, then NWLGRPSKVLSLQDLCCRTGVSCT [I20G], with 2.47. Regarding NWLGRPSKVLSLQDLCCRTVVSCT [I20V], the protein stability index was 2.14. With NWLGRPSKVLSLQDLCCRTSVSCT [I20S], the protein stability index amounted to 2.08. On the same count and under the same terms, then NWLGRPSKVLSLQDLCCRTMVSCT [I20M], with 2.83; and NWLGRPSKVLSLQDLCCRTAVSCT [I20A], with 1.94. Still for that read-out and setting: then NWLGRPSKVLSLQDLCCRTPVSCT [I20P], with 2.42; and NWLGRPSKVLSLQDLCCRTEVSCT [I20E], with 2.04. The same measure, in the same setting: then NWLGRPSKVLSLQDLCCRTYVSCT [I20Y], with 2.1; and NWLGRPSKVLSLQDLCCRTICSCT [V21C], with 2.41. NWLGRPSKVLSLQDLCCRTIQSCT [V21Q]: the protein stability index is 2.8. Still for that read-out and setting: for NWLGRPSKVLSLQDLCCRTIGSCT [V21G] the value was 2.64; for NWLGRPSKVLSLQDLCCRTISSCT [V21S], 2.77; for NWLGRPSKVLSLQDLCCRTIYSCT [V21Y], 2.08. Still for that read-out and setting: for NWLGRPSKVLSLQDLCCRTIMSCT [V21M] the value was 2.66.

Take NWLGRPSKVLSLQDLCCRTIISCT [V21I]: the protein stability index is 2.31. The same measure, in the same setting: for NWLGRPSKVLSLQDLCCRTIASCT [V21A] the value was 2.64; for NWLGRPSKVLSLQDLCCRTINSCT [V21N], 2.8.

As for NWLGRPSKVLSLQDLCCRTIRSCT [V21R], the protein stability index was 3.04.

Turning to NWLGRPSKVLSLQDLCCRTIFSCT [V21F], the protein stability index worked out at 2.43. Same read-out and setting: for NWLGRPSKVLSLQDLCCRTIESCT [V21E] the value was 1.88. On the same count and under the same terms, for NWLGRPSKVLSLQDLCCRTILSCT [V21L] the value was 2.04; for NWLGRPSKVLSLQDLCCRTIHSCT [V21H], 2.44.

On to NWLGRPSKVLSLQDLCCRTIKSCT [V21K], for which the protein stability index is 2.55. NWLGRPSKVLSLQDLCCRTIPSCT [V21P]: the protein stability index came out at 2.89. The same measure, in the same setting: then NWLGRPSKVLSLQDLCCRTIWSCT [V21W], with 2.46; and NWLGRPSKVLSLQDLCCRTITSCT [V21T], with 2.58. As to NWLGRPSKVLSLQDLCCRTIDSCT [V21D], the protein stability index turned out to be 3.02.

The variants in another data set derive from B2. Described as above. Conditions: c terminus: a fixed tail appended.
Turning to LGCAAVYSLLYLEHKGWYSWVLSM [Y4A], the protein stability index was found to be 4.36. On the same count and under the same terms, for LSCYAVYSLLYLEHKGWYSWVLSM [G2S] the value was 1.47. Same read-out and setting: then LQCYAVYSLLYLEHKGWYSWVLSM [G2Q], with 3.29; and LTCYAVYSLLYLEHKGWYSWVLSM [G2T], with 3.4. On the same count and under the same terms, then LICYAVYSLLYLEHKGWYSWVLSM [G2I], with 2.87.

Regarding LMCYAVYSLLYLEHKGWYSWVLSM [G2M], the protein stability index came to 3.58. The same measure, in the same setting: for LNCYAVYSLLYLEHKGWYSWVLSM [G2N] the value was 3.83. On the same count and under the same terms, then LDCYAVYSLLYLEHKGWYSWVLSM [G2D], with 3.19. Still for that read-out and setting: for LYCYAVYSLLYLEHKGWYSWVLSM [G2Y] the value was 3.37; for LFCYAVYSLLYLEHKGWYSWVLSM [G2F], 2.72; for LWCYAVYSLLYLEHKGWYSWVLSM [G2W], 2.07. Take LVCYAVYSLLYLEHKGWYSWVLSM [G2V]: the protein stability index stood at 2.32. Same read-out and setting: for LRCYAVYSLLYLEHKGWYSWVLSM [G2R] the value was 3.1; for LPCYAVYSLLYLEHKGWYSWVLSM [G2P], 2.76; for LECYAVYSLLYLEHKGWYSWVLSM [G2E], 3.26.

Consider LLCYAVYSLLYLEHKGWYSWVLSM [G2L], for which the protein stability index was determined as 3.57.

LGVYAVYSLLYLEHKGWYSWVLSM [C3V]: the protein stability index came to 3.36. On the same count and under the same terms, for LGWYAVYSLLYLEHKGWYSWVLSM [C3W] the value was 2.24.

Take LGDYAVYSLLYLEHKGWYSWVLSM [C3D]: the protein stability index came to 2.59.

As to LGSYAVYSLLYLEHKGWYSWVLSM [C3S], the protein stability index came out at 3.55.

Consider LGRYAVYSLLYLEHKGWYSWVLSM [C3R], for which the protein stability index was 1.63. The same measure, in the same setting: for LGYYAVYSLLYLEHKGWYSWVLSM [C3Y] the value was 3.21; for LGGYAVYSLLYLEHKGWYSWVLSM [C3G], 2.35; for LGMYAVYSLLYLEHKGWYSWVLSM [C3M], 3.15. On to LGTYAVYSLLYLEHKGWYSWVLSM [C3T], for which the protein stability index was found to be 2.52. Still for that read-out and setting: then LGIYAVYSLLYLEHKGWYSWVLSM [C3I], with 2.62; and LGNYAVYSLLYLEHKGWYSWVLSM [C3N], with 3.61. On the same count and under the same terms, then LGLYAVYSLLYLEHKGWYSWVLSM [C3L], with 3.21; and LGPYAVYSLLYLEHKGWYSWVLSM [C3P], with 2.26. Still for that read-out and setting: for LGFYAVYSLLYLEHKGWYSWVLSM [C3F] the value was 2.37; for LGHYAVYSLLYLEHKGWYSWVLSM [C3H], 2.58.

For LGEYAVYSLLYLEHKGWYSWVLSM [C3E], the protein stability index worked out at 3.26. Still for that read-out and setting: then LGKYAVYSLLYLEHKGWYSWVLSM [C3K], with 2.74; and HGCYAVYSLLYLEHKGWYSWVLSM [L1H], with 2.19. On to WGCYAVYSLLYLEHKGWYSWVLSM [L1W], for which the protein stability index is 2.96. Still for that read-out and setting: for MGCYAVYSLLYLEHKGWYSWVLSM [L1M] the value was 3.26. Still for that read-out and setting: for FGCYAVYSLLYLEHKGWYSWVLSM [L1F] the value was 2.55. Same read-out and setting: for DGCYAVYSLLYLEHKGWYSWVLSM [L1D] the value was 2.85; for CGCYAVYSLLYLEHKGWYSWVLSM [L1C], 2.92. Consider QGCYAVYSLLYLEHKGWYSWVLSM [L1Q], for which the protein stability index was found to be 4.62. With YGCYAVYSLLYLEHKGWYSWVLSM [L1Y], the protein stability index was 3.77.

Turning to IGCYAVYSLLYLEHKGWYSWVLSM [L1I], the protein stability index is 3.58. Same read-out and setting: then SGCYAVYSLLYLEHKGWYSWVLSM [L1S], with 3.4; and EGCYAVYSLLYLEHKGWYSWVLSM [L1E], with 3.05; and NGCYAVYSLLYLEHKGWYSWVLSM [L1N], with 3.26.

With RGCYAVYSLLYLEHKGWYSWVLSM [L1R], the protein stability index came out at 3.05. Same read-out and setting: then VGCYAVYSLLYLEHKGWYSWVLSM [L1V], with 2.65. For TGCYAVYSLLYLEHKGWYSWVLSM [L1T], the protein stability index came out at 3.54. On the same count and under the same terms, then GGCYAVYSLLYLEHKGWYSWVLSM [L1G], with 2.73.
